Measurements taken from article PMC9458455 (Nucleic Acids Research, 2022).

T1: translation elongation factor eEF1Bβ, full-length (human), P29692
T1 chain: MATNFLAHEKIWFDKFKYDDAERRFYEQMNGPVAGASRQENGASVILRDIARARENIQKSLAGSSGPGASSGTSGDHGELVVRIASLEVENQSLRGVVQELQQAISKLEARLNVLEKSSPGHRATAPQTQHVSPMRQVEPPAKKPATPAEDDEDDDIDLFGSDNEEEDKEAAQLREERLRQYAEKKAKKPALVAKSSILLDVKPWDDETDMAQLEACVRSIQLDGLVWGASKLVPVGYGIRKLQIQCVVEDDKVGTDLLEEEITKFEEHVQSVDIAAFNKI


Legend:
[1] = biological target: T1, translation elongation factor eEF1Bβ, …; experiment: AUC; conditions: remark: other sources report otherwise
[2] = biological target: T1, translation elongation factor eEF1Bβ, …; experiment: AUC; conditions: remark: other sources report otherwise
[3] = biological target: T1, translation elongation factor eEF1Bβ, …; experiment: AUC; conditions: remark: other sources report otherwise
[4] = biological target: eEF1B(αβγ)3 complex, reconstituted from full-length eEF1Bα, eEF1Bβ and eEF1Bγ (human, UniProt P24534 1-225; P29692 1-281; P26641 1-437); experiment: native gel or EMSA
eEF1B(αβγ)3 complex, reconstituted from full-length eEF1Bα, eEF1Bβ and eEF1Bγ, sequence (P24534 whole entry, chain 1 of 2): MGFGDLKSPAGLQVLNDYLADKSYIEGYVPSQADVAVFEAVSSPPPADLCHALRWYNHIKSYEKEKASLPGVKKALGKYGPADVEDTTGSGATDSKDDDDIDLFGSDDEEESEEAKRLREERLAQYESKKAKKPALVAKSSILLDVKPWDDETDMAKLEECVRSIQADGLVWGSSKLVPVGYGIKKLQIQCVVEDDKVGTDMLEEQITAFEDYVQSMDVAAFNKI
eEF1B(αβγ)3 complex, reconstituted from full-length eEF1Bα, eEF1Bβ and eEF1Bγ, sequence (P26641 whole entry, chain 3 of 2): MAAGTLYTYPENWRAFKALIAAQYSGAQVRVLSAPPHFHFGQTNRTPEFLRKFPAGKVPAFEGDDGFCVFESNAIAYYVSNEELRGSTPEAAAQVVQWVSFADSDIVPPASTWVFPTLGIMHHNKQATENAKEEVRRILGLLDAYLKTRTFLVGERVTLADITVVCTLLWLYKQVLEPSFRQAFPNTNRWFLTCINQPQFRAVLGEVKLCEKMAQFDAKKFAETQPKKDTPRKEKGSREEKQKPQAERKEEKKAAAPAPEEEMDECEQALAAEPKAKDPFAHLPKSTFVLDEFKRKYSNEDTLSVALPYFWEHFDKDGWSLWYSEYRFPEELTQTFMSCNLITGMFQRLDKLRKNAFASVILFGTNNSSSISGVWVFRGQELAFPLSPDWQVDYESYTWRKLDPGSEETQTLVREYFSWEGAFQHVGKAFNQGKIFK

Binder | stoichiometry N [1] | stoichiometry N [2] | stoichiometry N [3] | stoichiometry N [4]
translation elongation factor eEF1Bβ, full-length, P29692 1-281 (natural protein) MATNFLAHEKIWFDKFKYDDAERRFYEQMNGPVAGASRQENGASVILRDIARARENIQKSLAGSSGPGASSGTSGDHGELVVRIASLEVENQSLRGVVQELQQAISKLEARLNVLEKSSPGHRATAPQTQHVSPMRQVEPPAKKPATPAEDDEDDDIDLFGSDNEEEDKEAAQLREERLRQYAEKKAKKPALVAKSSILLDVKPWDDETDMAQLEACVRSIQLDGLVWGASKLVPVGYGIRKLQIQCVVEDDKVGTDLLEEEITKFEEHVQSVDIAAFNKI | 3 | 3 | 3 | 
translation elongation factor eEF1A2 (natural protein, UniProt Q05639 1-463, looked up) MGKEKTHINIVVIGHVDSGKSTTTGHLIYKCGGIDKRTIEKFEKEAAEMGKGSFKYAWVLDKLKAERERGITIDISLWKFETTKYYITIIDAPGHRDFIKNMITGTSQADCAVLIVAAGVGEFEAGISKNGQTREHALLAYTLGVKQLIVGVNKMDSTEPAYSEKRYDEIVKEVSAYIKKIGYNPATVPFVPISGWHGDNMLEPSPNMPWFKGWKVERKEGNASGVSLLEALDTILPPTRPTDKPLRLPLQDVYKIGGIGTVPVGRVETGILRPGMVVTFAPVNITTEVKSVEMHHEALSEALPGDNVGFNVKNVSVKDIRRGNVCGDSKSDPPQEAAQFTSQVIILNHPGQISAGYSPVIDCHTAHIACKFAELKEKIDRRSGKKLEDNPKSLKSGDAAIVEMVPGKPMCVESFSQYPPLGRFAVRDMRQTVAVGVIKNVEKKSGGAGKVTKSAQKAQKAGK |  |  |  | 6
